Assay results as given in publication PMC3419727, “Identifying the Hotspots on the Top Faces of WD40-Repeat Proteins from Their Primary Sequences by β-Bulges and DHSW Tetrads” (PLoS ONE, 2012).

B1: S. japonicus Tup11 WD40 domain (amino acids 301–630), wild type [S. japonicus] / C-terminal region of S. pombe Fep1 (amino acids 319–564) [S. pombe] (parent complex)
chain 1: ERTKESGQDWYAVYNEKMPKRMSIGLVHTLEHKSVVCCVRFSADGKYLATGCNRAAEIFDVQTGQKLATFEQENTNPETDLYIRSVAFSPDGKYLVTGAEDRQIRMWDIATGKVKHVFVGHEQDIYSLDYSRDGRYIVSGSGDHTARLWEAETGKCVLTLAIENGVTAVAFSPNNQFIAAGSLDQVIRVWSITGTLLKKLEGHRESVYSIAFSADGKYLASGSLDKTMRLWELKLDENAKTCSKASAISTYTGHSNFVLSVAISPNGKWAVSGSKDRSVQFWNLKTDELYLTFQGHKNSVISVCFSPDGKLFATGSGDLRARIWSIEDTA
chain 2: AAGEPDNNGKVYYSYGPTQEQSILPLPENKHEGLPPYQNEYVPNGIRANQVVYPGQLVAVGNDSSKQLSESTTSNTDNNGVATANQSNPLGMKFHLPPILPVGESVCLPPRTSAKPRIAEGIASLLNPEEPPSNSDKQPSMSNGPKSEVSPSQSQQAPLIQSSTSPVSLQFPPEVQGSNVDKRNYALNVLSQLRSQHDLMIQELHNLNQHIQQIDEWLRSSDNENMASEHIKSSTPAVVASGALQT

Variants of: B1
Test: ITC; parent: -6.6; read off a plot

Going from chain 1 ERTKESGQDWYAVYNEKMPKRMSIGLVHTLEHKSVVACVRFSADGKYLATGCNRAAEIFDVQTGQKLATFEQENTNPETDLYIRSVAFSPDGKYLVTGAEDRQIRMWDIATGKVKHVFVGHEQDIYSLDYSRDGRYIVSGSGDHTARLWEAETGKCVLTLAIENGVTAVAFSPNNQFIAAGSLDQVIRVWSITGTLLKKLEGHRESVYSIAFSADGKYLASGSLDKTMRLWELKLDENAKTCSKASAISTYTGHSNFVLSVAISPNGKWAVSGSKDRSVQFWNLKTDELYLTFQGHKNSVISVCFSPDGKLFATGSGDLRARIWSIEDTA [chain 1 C37A] to chain 1 ERTKESGQDWYAVYNEKMPKRMSIGLVHTLEHKSVVCCVRFSADGKYLATGCNRAAEIFDVQTGQKLATFEQENTNPETDLYIRSVAFSPDGKYLVTGAEDRQIRMWDIATGKVKHVFVGHEQDIYSLDYSRDGRYIVSGSGDHTARLWEAETGKCVLTLAIENGVTAVAFSPNNQFIAAGSLDQVIRVWSITGTLLKKLEGHRESVYSIAFSADGKYLASGSADKTMRLWELKLDENAKTCSKASAISTYTGHSNFVLSVAISPNGKWAVSGSKDRSVQFWNLKTDELYLTFQGHKNSVISVCFSPDGKLFATGSGDLRARIWSIEDTA [chain 1 L224A], the dG rises from roughly -6.2 kcal/mol to roughly -6 kcal/mol.

Compared with chain 1 ERTKESGQDWYAVYNEKMPKRMSIGLVHTLEHKSVVCCVRFSADGKYLATGCNRAAEIFDVQTGQKLATFEQENTNPETDLYIASVAFSPDGKYLVTGAEDRQIRMWDIATGKVKHVFVGHEQDIYSLDYSRDGRYIVSGSGDHTARLWEAETGKCVLTLAIENGVTAVAFSPNNQFIAAGSLDQVIRVWSITGTLLKKLEGHRESVYSIAFSADGKYLASGSLDKTMRLWELKLDENAKTCSKASAISTYTGHSNFVLSVAISPNGKWAVSGSKDRSVQFWNLKTDELYLTFQGHKNSVISVCFSPDGKLFATGSGDLRARIWSIEDTA [chain 1 R84A], chain 1 ERTKESGQDWYAVYNEKMPKRMSIGLVHTLEHKSVVCCVRFSADGKYLATGCNRAAEIFDVQTGQKLATFEQENTNPETDLYIRSVAFSPDGKYLVTGAEDRQIRMWDIATGKVKHVFVGHEQDIYSLDYSRDGRYIVSGSGDHTARLWEAETGKCVLTLAIENGVAAVAFSPNNQFIAAGSLDQVIRVWSITGTLLKKLEGHRESVYSIAFSADGKYLASGSLDKTMRLWELKLDENAKTCSKASAISTYTGHSNFVLSVAISPNGKWAVSGSKDRSVQFWNLKTDELYLTFQGHKNSVISVCFSPDGKLFATGSGDLRARIWSIEDTA [chain 1 T167A] is lower in dG: roughly -5.4 kcal/mol for the first, roughly -6.4 kcal/mol for the second.

Compared with chain 1 ERTKESGQDWYAVYNEKMPKRMSIGLVHTLEHKSVVCCVRFSADGKYLATGCNRAAEIFDVQTGQKLATFEQENTNPETDLYIRSVAFSPDGKYLVTGAADRQIRMWDIATGKVKHVFVGHEQDIYSLDYSRDGRYIVSGSGDHTARLWEAETGKCVLTLAIENGVTAVAFSPNNQFIAAGSLDQVIRVWSITGTLLKKLEGHRESVYSIAFSADGKYLASGSLDKTMRLWELKLDENAKTCSKASAISTYTGHSNFVLSVAISPNGKWAVSGSKDRSVQFWNLKTDELYLTFQGHKNSVISVCFSPDGKLFATGSGDLRARIWSIEDTA [chain 1 E100A], chain 1 ERTKESGQDWYAVYNEKMPKRMSIGLVHTLEHKSVVCCVRFSADGKYLATGCNRAAEIFDVQTGQKLATFEQENTNPETDLYIRSVAFSPDGKYLVTGAEDRQIRMWDIATGKVKHVFVGHEQDIYSLDYSRDGRYIVSGSGDHTARLWEAETGKCVLTLAIENGVTAVAFSPNNQFIAAGSSDQVIRVWSITGTLLKKLEGHRESVYSIAFSADGKYLASGSLDKTMRLWELKLDENAKTCSKASAISTYTGHSNFVLSVAISPNGKWAVSGSKDRSVQFWNLKTDELYLTFQGHKNSVISVCFSPDGKLFATGSGDLRARIWSIEDTA [chain 1 L183S] is lower in dG: roughly -6.2 kcal/mol for the first, roughly -6.8 kcal/mol for the second.

First: chain 1 ERTKESGQDWYAVYNEKMPKRMSIGLVHTLEHKSVVCCVRFSADGKYLATGCNRAAEIFDVQTGQKLATFEQENTNPETDLYIRSVAFSPDGKYLVTGAEDRQIRMWDIATGKVKHVFVGHEQDIYSLDYSRDGRYIVSGSGDHTARLWEAETGKCVLTLAIENGVTAVAFSPNNQFIAAGSLDQVIRVWSITGTLLKKLEGHRESVYSIAFSADGKYLASGSLDKTMRLWELKLDENAKTCSKASAISTYTGHSNAVLSVAISPNGKWAVSGSKDRSVQFWNLKTDELYLTFQGHKNSVISVCFSPDGKLFATGSGDLRARIWSIEDTA [chain 1 F257A]
Second: chain 1 ERTKESGQDWYAVYNEKMPKRMSIGLVHTLEHKSVVCCVRFSADGKYLATGCNRAAEIFDVQTGQKLATFEQENTNPETDLYIRSVAFSPDGKYLVTGAEDRQIRMWDIATGKVKHVFVGHEQAIYSLDYSRDGRYIVSGSGDHTARLWEAETGKCVLTLAIENGVTAVAFSPNNQFIAAGSLDQVIRVWSITGTLLKKLEGHRESVYSIAFSADGKYLASGSLDKTMRLWELKLDENAKTCSKASAISTYTGHSNFVLSVAISPNGKWAVSGSKDRSVQFWNLKTDELYLTFQGHKNSVISVCFSPDGKLFATGSGDLRARIWSIEDTA [chain 1 D124A]
The dG of the first is higher: roughly -5.9 kcal/mol for the first, roughly -6.9 kcal/mol for the second.

Compared with chain 1 ERTKESGQDWYAVYNEKMPKRMSIGLVHTLEHKSVVCCVRFSADGKYLATGCNRAAEIFDVQTGQKLATFEQENTNPETDLYIRSVAFSPDGKYLVTGAEDRQIRMWDIATGKVKHVFVGHEQDIASLDYSRDGRYIVSGSGDHTARLWEAETGKCVLTLAIENGVTAVAFSPNNQFIAAGSLDQVIRVWSITGTLLKKLEGHRESVYSIAFSADGKYLASGSLDKTMRLWELKLDENAKTCSKASAISTYTGHSNFVLSVAISPNGKWAVSGSKDRSVQFWNLKTDELYLTFQGHKNSVISVCFSPDGKLFATGSGDLRARIWSIEDTA [chain 1 Y126A], chain 1 ERTKESGQDWYAVYNEKMPKRMSIGLVHTLEHKSVVCCVRFSADGKYLATGCNRAAEIFDVQTGQKLATFEQENTNPETDLYIRSVAFSPDGKYLVTGAEDRQIRMWDIATGKVKHVFVGHEQDIYSLDYSRDGRYIVSGSGDHTARLWEAETGKCVLTLAIENGVTAVAFSPNNQFIAAGSLDQVIRVWSITGTLLKKLEGHRESVYSIAFSADGKYLASGSLDKTMRLWELKLDENAKTCSKASAISTYTGHSNFVLSVAISPNGKWAVSGSKDRSVQFWNLKTDELYLTFQGHKNSVASVCFSPDGKLFATGSGDLRARIWSIEDTA [chain 1 I301A] is higher in dG: roughly -5.6 kcal/mol for the first, roughly -5.4 kcal/mol for the second.

chain 1 ERTKESGQDWYAVYNEKMPKRMSIGLVHTLEHKSVVCCVRFSADGKYLATGCNRAAEIFDVQTGQKLATFEQENTNPETDLYIRSVAFSPDGKYLVTGAEDRQIRMWDIATGKVKHVFVGHEQDIYSLDYSRDGRYIVSGSGDHTARLWEAETGKCVLTLAIENGVTAVAFSPNNQFIAAGSLDQVIRVWSITGTLLKKLEGHRESVASIAFSADGKYLASGSLDKTMRLWELKLDENAKTCSKASAISTYTGHSNFVLSVAISPNGKWAVSGSKDRSVQFWNLKTDELYLTFQGHKNSVISVCFSPDGKLFATGSGDLRARIWSIEDTA [chain 1 Y208A] was tested, and the dG was roughly -5.6 kcal/mol.
